Paper PMC5437018
Like-named read-outs stand apart in the source and are kept apart here.

Tests used:
PP1 (Homo sapiens) [1] = target: PP1 (Homo sapiens) (UniProt P62136); conditions: cited from earlier work
PP1 (Homo sapiens) [2] = target: PP1 (Homo sapiens) (UniProt P62136); conditions: cited from earlier work; remark: listed apart in the source
PP1 (Homo sapiens) [3] = target: PP1 (Homo sapiens) (UniProt P62136); conditions: cited from earlier work; remark: listed apart in the source
[4] = target: Recombinant purified α-isoform of mammalian PP1 (residues 1–330), tag cleaved (mammalian) (UniProt P62136); test: SPR; Biacore 3000; PP1 covalently coupled to a CM5 chip; Rif1 CRI, mutants and peptide injected at 20 µl/min in 10 mM Tris-HCl pH 7.5, 250 mM NaCl, 1 mM DTT, 2 mM MnCl2, 0.005% Tween 20; 1:1 binding model
Recombinant purified α-isoform of mammalian PP1 (residues 1–330), tag cleaved (mammalian), sequence (P62136 whole entry, the tested form may be a part, canonical isoform): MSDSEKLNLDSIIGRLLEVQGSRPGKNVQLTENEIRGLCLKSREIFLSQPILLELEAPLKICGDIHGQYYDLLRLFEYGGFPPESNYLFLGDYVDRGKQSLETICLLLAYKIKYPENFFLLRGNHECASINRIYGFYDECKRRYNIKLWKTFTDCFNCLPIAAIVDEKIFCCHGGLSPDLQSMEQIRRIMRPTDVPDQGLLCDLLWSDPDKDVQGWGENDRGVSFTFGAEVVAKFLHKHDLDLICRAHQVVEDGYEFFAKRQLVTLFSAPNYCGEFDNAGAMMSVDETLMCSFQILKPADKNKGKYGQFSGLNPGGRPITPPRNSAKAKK

PP1 (Homo sapiens) [5] = target: PP1 (Homo sapiens) (UniProt P62136); conditions: cited from earlier work; remark: listed apart in the source

PP1 (Homo sapiens), sequence (P62136 2-330): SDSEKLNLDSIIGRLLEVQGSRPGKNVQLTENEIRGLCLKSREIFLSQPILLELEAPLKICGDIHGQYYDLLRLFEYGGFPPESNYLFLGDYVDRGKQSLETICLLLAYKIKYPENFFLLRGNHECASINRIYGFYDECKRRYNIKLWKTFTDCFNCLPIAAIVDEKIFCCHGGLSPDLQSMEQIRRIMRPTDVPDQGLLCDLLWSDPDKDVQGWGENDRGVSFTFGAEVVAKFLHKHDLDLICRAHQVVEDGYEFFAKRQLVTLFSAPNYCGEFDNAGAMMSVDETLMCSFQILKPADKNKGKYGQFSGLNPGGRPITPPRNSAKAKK
PNUTS, sequence (Q96QC0 whole entry): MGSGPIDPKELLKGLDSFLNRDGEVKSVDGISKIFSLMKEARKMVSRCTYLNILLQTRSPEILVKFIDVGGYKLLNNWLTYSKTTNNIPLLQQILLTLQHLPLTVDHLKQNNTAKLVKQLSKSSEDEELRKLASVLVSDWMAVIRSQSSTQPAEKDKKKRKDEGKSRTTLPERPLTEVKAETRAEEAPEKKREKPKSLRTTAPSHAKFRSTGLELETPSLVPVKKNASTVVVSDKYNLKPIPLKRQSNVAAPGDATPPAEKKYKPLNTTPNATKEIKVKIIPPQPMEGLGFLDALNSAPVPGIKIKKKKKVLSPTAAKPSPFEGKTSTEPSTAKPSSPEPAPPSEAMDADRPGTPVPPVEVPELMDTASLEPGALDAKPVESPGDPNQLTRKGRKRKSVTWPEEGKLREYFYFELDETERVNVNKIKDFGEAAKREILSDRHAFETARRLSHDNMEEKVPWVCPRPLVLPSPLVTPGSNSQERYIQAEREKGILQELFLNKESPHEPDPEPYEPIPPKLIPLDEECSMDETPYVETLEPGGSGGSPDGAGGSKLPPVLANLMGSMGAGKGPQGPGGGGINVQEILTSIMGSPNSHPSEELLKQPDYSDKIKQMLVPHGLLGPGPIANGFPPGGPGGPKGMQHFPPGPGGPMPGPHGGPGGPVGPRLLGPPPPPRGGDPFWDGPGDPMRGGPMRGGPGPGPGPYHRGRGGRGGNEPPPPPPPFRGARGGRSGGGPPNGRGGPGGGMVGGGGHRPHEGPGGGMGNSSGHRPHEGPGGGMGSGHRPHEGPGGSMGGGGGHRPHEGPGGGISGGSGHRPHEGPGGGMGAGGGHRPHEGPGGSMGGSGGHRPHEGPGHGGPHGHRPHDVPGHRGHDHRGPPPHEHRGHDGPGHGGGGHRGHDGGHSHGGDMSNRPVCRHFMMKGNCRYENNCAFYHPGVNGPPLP
NIPP1, sequence (Q12972 whole entry): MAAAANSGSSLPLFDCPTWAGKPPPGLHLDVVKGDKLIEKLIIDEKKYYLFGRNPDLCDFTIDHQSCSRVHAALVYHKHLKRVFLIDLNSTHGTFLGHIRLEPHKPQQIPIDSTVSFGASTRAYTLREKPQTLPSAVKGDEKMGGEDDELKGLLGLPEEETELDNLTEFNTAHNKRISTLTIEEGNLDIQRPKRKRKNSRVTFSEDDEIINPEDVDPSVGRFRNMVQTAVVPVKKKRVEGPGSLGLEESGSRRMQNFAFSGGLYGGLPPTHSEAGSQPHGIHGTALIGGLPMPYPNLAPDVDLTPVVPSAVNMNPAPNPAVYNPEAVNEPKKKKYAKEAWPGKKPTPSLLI
GADD34, sequence (O75807 whole entry): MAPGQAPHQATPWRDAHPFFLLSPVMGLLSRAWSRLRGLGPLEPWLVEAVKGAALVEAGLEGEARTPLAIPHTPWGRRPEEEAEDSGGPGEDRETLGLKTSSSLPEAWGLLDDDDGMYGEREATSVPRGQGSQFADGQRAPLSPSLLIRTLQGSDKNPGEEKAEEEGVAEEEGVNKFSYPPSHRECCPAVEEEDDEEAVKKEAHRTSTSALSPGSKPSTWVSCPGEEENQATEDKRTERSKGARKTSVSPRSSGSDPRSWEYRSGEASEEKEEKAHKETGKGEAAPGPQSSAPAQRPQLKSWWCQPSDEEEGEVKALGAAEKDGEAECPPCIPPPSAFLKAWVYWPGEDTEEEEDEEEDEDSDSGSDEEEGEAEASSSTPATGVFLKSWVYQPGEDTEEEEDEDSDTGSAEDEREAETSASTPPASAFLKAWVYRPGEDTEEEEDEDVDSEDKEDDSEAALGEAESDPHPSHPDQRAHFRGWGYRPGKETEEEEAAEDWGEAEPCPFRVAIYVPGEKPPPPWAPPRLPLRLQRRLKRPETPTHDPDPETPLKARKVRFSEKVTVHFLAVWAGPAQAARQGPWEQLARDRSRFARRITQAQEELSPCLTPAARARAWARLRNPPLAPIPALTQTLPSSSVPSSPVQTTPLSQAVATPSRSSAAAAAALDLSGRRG
spinophilin, sequence (O35274 417-494): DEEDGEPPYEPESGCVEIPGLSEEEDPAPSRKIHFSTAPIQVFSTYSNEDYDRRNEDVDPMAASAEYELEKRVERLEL

For GADD34 (from UniProt O75807), the Kd (PP1 (Homo sapiens) [1]) is given as 0.062 µM.
For PNUTS (from UniProt Q96QC0), the Kd (PP1 (Homo sapiens) [2]) is listed as 0.0087 µM.
In the case of spinophilin (from UniProt O35274), the Kd (PP1 (Homo sapiens) [3]) is given as 0.0093 µM.
“Rif1 CRI (2093–2190) RVSF to RVSA (from UniProt Q6PR54 2093-2190) (domain or fragment)” showed an affinity as percent of the wild-type interaction [4] of under 0.1%.
For “Rif1 CRI (2093–2190) SILK to SAAA (from UniProt Q6PR54 2093-2190) (domain or fragment)”, the fold decrease in affinity against wild type [4] was 20 fold.
“Rif1 CRI (2093–2190) RVSF to RASF (from UniProt Q6PR54 2093-2190) (domain or fragment)” showed a fold decrease in affinity against wild type [4] of 20 fold.
In the case of NIPP1 (from UniProt Q12972), the Kd (PP1 (Homo sapiens) [5]) is listed as 0.073 µM.
